{"source": "patent US10087225B2", "about": "“Formulation of MK2 inhibitor peptides” (MOERAE MATRIX, INC., priority 2015, dated 2018)", "experiment_in_all_cases": "Kinase Profiling Assay", "format_in_all_cases": "biochemical", "key": {"MSK1(h)": {"biological_target": "MSK1(h) (Homo sapiens, UniProt O75582)", "settings": "100 μM"}, "MST2(h)": {"biological_target": "T1, MST2(h) (Homo sapiens, UniProt Q13188)", "T1 sequence (Q13188 1-491)": "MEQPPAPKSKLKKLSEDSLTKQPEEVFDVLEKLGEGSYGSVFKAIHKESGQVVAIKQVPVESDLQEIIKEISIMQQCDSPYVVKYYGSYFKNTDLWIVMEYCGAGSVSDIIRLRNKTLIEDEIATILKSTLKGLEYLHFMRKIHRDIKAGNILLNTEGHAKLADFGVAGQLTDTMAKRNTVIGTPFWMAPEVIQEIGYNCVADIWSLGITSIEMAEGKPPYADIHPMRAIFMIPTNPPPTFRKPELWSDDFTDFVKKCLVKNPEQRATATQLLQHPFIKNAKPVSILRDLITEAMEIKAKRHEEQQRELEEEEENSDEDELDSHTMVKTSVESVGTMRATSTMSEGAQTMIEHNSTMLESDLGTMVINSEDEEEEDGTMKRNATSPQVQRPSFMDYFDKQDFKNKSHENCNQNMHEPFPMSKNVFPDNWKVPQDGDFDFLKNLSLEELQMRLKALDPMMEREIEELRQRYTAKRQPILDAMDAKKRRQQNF"}, "Arg(h)": {"biological_target": "Arg(h) (Homo sapiens, UniProt P42684)", "sequence (P42684 whole entry)": "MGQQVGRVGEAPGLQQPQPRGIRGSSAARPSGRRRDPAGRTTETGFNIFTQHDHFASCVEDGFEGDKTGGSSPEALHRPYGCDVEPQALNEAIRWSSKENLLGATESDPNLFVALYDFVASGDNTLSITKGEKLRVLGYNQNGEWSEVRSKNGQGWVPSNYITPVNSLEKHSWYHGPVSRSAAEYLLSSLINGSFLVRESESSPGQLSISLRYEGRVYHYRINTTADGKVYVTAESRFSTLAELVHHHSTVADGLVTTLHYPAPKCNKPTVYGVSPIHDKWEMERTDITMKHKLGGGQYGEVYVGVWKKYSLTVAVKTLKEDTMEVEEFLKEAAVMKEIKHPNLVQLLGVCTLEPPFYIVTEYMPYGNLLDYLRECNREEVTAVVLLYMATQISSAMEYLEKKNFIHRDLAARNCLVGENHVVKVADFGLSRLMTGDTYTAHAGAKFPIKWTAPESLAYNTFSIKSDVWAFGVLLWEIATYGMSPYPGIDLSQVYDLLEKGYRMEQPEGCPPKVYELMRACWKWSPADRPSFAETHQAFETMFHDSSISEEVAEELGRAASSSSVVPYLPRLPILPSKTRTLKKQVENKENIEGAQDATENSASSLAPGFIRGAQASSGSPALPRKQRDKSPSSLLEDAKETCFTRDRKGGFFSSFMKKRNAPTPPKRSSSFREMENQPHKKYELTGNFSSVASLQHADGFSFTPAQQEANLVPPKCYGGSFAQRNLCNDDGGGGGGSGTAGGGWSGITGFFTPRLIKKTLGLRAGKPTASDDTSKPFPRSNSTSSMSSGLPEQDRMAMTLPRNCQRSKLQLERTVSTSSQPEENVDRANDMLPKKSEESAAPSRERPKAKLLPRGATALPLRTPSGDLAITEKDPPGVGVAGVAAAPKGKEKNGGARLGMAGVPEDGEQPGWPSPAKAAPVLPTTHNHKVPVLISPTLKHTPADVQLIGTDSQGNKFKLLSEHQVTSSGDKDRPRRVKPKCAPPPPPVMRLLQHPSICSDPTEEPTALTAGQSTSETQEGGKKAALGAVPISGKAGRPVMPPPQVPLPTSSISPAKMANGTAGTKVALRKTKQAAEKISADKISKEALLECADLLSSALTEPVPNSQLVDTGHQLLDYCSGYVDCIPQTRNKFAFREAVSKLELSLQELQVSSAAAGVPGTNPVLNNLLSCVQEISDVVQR", "settings": "100 μM"}, "CDK5/p25(h)": {"biological_target": "CDK5/p25(h) (Homo sapiens, UniProt Q00535)", "sequence (Q00535 whole entry)": "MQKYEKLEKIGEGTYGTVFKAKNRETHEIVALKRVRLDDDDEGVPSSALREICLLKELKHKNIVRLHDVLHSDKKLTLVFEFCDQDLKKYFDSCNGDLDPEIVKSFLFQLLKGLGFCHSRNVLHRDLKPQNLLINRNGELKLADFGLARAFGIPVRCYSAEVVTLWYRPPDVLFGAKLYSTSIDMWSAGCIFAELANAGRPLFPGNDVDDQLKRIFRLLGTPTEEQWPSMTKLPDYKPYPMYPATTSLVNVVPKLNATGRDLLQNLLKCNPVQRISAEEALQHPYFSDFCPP", "sequence (Q15078 99-307 partner limits assumed)": "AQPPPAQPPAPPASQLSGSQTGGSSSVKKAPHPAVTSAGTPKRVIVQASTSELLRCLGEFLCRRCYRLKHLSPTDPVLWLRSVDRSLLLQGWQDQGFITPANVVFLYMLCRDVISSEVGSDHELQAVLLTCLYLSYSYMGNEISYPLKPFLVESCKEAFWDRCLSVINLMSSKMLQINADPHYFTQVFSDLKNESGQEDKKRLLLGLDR", "settings": "100 μM"}, "TSSK2(h)": {"biological_target": "T2, TSSK2(h) (Homo sapiens, UniProt Q96PF2)", "T2 sequence (Q96PF2 1-358)": "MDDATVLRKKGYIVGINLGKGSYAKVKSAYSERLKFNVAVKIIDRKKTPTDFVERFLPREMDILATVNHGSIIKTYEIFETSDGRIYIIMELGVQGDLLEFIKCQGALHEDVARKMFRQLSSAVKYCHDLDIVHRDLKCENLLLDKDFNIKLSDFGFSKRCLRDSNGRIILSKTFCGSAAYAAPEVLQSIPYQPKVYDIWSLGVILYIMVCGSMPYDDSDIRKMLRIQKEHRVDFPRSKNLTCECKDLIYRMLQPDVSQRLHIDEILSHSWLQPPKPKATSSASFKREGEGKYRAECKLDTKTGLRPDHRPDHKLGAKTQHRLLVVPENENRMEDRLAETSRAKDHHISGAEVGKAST", "settings": "100 μM"}, "TAO1(h)": {"biological_target": "T3, TAO1(h) (Homo sapiens, UniProt Q7L7X3)", "T3 sequence (Q7L7X3 1-1001)": "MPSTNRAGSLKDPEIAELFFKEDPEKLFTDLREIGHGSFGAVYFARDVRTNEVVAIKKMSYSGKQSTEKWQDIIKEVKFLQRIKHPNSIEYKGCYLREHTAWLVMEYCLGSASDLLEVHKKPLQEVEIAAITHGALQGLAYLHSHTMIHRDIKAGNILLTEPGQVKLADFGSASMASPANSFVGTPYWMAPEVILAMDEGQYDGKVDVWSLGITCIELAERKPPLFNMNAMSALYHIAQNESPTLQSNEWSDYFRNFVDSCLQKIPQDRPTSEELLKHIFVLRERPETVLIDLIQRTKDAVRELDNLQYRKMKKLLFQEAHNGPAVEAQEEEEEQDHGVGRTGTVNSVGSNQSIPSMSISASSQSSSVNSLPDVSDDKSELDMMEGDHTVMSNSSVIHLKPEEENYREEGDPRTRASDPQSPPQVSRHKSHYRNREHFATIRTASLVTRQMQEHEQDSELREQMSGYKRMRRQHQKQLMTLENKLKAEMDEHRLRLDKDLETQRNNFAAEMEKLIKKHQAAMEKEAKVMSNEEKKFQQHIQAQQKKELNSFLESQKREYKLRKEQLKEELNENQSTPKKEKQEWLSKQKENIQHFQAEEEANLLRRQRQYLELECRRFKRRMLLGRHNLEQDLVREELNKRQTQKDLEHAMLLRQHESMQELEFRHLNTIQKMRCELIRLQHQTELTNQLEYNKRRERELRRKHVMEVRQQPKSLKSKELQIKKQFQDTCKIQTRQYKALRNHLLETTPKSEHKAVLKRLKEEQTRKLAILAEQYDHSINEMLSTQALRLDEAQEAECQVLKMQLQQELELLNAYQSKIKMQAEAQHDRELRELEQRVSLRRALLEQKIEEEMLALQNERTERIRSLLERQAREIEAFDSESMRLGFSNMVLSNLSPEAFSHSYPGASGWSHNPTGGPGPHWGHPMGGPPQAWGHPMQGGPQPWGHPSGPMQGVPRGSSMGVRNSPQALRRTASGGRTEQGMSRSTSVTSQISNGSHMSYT"}, "NEK6(h)": {"biological_target": "NEK6(h) (Homo sapiens, UniProt Q9HC98)", "sequence (Q9HC98 whole entry)": "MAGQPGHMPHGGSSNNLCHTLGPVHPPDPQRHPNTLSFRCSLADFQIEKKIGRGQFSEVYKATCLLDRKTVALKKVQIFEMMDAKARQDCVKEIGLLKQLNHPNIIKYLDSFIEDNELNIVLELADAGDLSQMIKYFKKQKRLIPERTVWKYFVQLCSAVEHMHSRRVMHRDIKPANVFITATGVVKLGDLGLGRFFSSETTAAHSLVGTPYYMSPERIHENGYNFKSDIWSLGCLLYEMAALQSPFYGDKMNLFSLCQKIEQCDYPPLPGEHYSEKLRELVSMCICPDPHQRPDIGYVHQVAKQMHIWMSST", "settings": "100 μM"}, "Fer(h)": {"biological_target": "Fer(h) (Homo sapiens, UniProt P16591)", "sequence (P16591 whole entry)": "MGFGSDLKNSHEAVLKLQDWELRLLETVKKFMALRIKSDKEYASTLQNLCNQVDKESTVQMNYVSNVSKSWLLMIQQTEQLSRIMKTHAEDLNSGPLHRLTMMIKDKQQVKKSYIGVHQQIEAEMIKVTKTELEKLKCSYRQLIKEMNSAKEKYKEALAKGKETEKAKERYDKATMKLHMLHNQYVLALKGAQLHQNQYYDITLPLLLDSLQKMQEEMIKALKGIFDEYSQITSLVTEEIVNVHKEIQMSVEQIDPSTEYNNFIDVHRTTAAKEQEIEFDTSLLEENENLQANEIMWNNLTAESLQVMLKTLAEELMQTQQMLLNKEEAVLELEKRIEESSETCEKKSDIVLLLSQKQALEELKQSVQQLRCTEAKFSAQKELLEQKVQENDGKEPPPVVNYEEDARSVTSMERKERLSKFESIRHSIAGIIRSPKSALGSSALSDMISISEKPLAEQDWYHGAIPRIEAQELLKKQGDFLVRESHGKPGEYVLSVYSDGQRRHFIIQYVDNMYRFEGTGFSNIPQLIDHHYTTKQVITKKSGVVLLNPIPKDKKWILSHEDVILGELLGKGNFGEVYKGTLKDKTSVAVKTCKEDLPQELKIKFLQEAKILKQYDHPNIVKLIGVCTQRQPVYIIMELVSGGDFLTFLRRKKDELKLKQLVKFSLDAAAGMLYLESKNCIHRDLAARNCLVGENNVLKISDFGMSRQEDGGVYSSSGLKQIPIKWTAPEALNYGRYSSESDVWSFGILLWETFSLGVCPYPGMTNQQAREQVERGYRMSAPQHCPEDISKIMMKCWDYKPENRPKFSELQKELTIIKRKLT", "settings": "100 μM"}, "Flt1(h)": {"biological_target": "Flt1(h) (Homo sapiens, UniProt P17948)", "sequence (P17948 27-1338)": "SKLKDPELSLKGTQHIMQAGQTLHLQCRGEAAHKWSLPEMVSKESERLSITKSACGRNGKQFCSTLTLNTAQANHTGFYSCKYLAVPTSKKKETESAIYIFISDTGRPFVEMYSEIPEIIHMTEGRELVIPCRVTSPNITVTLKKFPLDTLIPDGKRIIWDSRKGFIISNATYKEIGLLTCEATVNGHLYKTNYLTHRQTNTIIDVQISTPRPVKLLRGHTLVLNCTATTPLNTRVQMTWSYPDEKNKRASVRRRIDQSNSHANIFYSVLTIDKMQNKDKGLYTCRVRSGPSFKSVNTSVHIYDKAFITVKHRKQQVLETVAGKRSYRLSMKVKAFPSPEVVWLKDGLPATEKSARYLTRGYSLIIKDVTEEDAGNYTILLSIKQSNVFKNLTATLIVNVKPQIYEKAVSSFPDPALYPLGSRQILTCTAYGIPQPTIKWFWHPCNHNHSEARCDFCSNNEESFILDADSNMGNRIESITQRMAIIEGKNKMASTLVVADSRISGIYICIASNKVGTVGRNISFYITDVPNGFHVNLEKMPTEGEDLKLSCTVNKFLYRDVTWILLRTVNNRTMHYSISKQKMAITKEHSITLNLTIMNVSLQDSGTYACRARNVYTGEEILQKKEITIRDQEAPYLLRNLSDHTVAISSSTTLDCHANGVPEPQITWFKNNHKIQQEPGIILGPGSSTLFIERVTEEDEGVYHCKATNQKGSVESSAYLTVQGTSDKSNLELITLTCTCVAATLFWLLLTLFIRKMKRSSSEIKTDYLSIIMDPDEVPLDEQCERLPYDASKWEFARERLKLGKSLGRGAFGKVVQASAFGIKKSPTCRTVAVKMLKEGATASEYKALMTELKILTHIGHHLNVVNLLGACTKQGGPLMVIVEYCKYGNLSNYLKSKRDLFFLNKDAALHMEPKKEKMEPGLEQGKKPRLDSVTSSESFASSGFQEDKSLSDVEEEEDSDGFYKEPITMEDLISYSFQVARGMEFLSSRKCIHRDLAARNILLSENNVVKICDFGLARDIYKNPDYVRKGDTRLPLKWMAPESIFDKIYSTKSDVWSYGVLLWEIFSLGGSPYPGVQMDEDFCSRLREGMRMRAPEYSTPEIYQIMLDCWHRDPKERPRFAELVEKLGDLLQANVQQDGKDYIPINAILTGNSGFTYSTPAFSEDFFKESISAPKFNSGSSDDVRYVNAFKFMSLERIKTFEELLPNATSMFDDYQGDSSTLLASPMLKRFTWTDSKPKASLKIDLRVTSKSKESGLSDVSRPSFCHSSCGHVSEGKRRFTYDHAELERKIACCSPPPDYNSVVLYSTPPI", "settings": "100 μM"}, "PDGFRβ(h)": {"biological_target": "PDGFRβ(h) (Homo sapiens, UniProt P09619)", "settings": "100 μM"}, "Ret(V804M)(h)": {"biological_target": "Ret(V804M)(h) (Homo sapiens, UniProt P07949, V804M)"}, "MAPK1(h)": {"biological_target": "MAPK1(h) (Homo sapiens, UniProt P27361)", "sequence (P27361 whole entry)": "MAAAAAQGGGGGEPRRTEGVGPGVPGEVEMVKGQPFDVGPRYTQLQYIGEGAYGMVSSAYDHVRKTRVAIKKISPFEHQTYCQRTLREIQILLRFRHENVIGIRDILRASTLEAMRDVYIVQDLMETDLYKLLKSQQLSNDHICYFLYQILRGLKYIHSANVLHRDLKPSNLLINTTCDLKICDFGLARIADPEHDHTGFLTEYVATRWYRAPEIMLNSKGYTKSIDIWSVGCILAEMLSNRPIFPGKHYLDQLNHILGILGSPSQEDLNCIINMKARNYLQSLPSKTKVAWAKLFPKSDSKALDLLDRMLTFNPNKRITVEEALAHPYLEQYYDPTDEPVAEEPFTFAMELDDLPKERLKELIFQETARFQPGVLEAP"}}}
{"substance": "HRRIKAWLKKIKALARQLGVAA (Mammalian) [MMI-0500]", "values": [{"measurement": "% activity", "setting": "MSK1(h)", "result": 8, "unit": "%"}, {"measurement": "% activity", "setting": "MST2(h); 100 μM", "result": 2, "unit": "%"}, {"measurement": "% activity", "setting": "Arg(h)", "result": 22, "unit": "%"}, {"measurement": "% activity", "setting": "CDK5/p25(h)", "result": 66, "unit": "%"}, {"measurement": "% activity", "setting": "TSSK2(h)", "result": 92, "unit": "%"}, {"measurement": "% activity", "setting": "TAO1(h); 100 μM", "result": 24, "unit": "%"}, {"measurement": "% activity", "setting": "NEK6(h)", "result": 49, "unit": "%"}, {"measurement": "% activity", "setting": "Fer(h)", "result": 196, "unit": "%"}, {"measurement": "% activity", "setting": "Flt1(h)", "result": 27, "unit": "%"}, {"measurement": "% activity", "setting": "PDGFRβ(h)", "result": 40, "unit": "%"}, {"measurement": "% activity", "setting": "Ret(V804M)(h); 100 μM", "result": 36, "unit": "%"}]}
{"substance": "YARAAARQARAKALNRQLGVA (Mammalian) [MMI-0200]", "values": [{"measurement": "% activity", "setting": "MSK1(h)", "result": 50, "unit": "%"}, {"measurement": "% activity", "setting": "MAPK1(h); 100 μM", "result": 97, "unit": "%"}, {"measurement": "% activity", "setting": "Arg(h)", "result": 82, "unit": "%"}, {"measurement": "% activity", "setting": "CDK5/p25(h)", "result": 97, "unit": "%"}, {"measurement": "% activity", "setting": "TSSK2(h)", "result": 91, "unit": "%"}, {"measurement": "% activity", "setting": "NEK6(h)", "result": 98, "unit": "%"}, {"measurement": "% activity", "setting": "Fer(h)", "result": 101, "unit": "%"}, {"measurement": "% activity", "setting": "Flt1(h)", "result": 96, "unit": "%"}, {"measurement": "% activity", "setting": "PDGFRβ(h)", "result": 137, "unit": "%"}]}
{"substance": "H-YARAAARQARAKALARQLGVAA-OH [MMI-0100]", "values": [{"measurement": "activity at 100 µM", "setting": "MST2(h)", "result": 98, "unit": "%"}, {"measurement": "activity at 100 µM", "setting": "MAPK1(h)", "result": 108, "unit": "%"}, {"measurement": "activity at 100 µM", "setting": "TAO1(h)", "result": 99, "unit": "%"}, {"measurement": "activity at 100 µM", "setting": "Ret(V804M)(h)", "result": 92, "unit": "%"}]}
